The nature of data set [1]: Peptide stability in simulated gastric fluid (SGF). It counts as in vitro ADME. The conditions noted are these: 37 °C, pH 1.2, porcine pepsin 3.2 g/L, 10 µM. As for the experimental part:
SGF was prepared by dissolving sodium chloride (0.2 g) in 50 mL of water. A volume of 0.7 mL of 10 M HCl was added to adjust the pH of the solution to 1.2 and the volume made up to 100 mL with water. […] SIF was prepared by dissolving monobasic potassium phosphate (0.68 g) in 50 mL of water and adjusting the pH to 6.8 with 1 M NaOH. The volume was subsequently made up to 100 mL with water. 200 mg porcine pancreatin (P1625, Sigma Aldrich) was gently dissolved into 20 mL preheated (37 °C) solution (10 g/L) immediately prior to the incubation.
The incubation was performed at 37 °C with gentle shaking. […] After the last timepoint, the sampling plate was mixed for 10 min on a shaking table and centrifuged 10 min at 2200 g. 70 µL resulting supernatant was diluted with 150 µL water, mixed and centrifugated before analysis by liquid chromatography high resolution mass spectrometry. […] Percent remaining at each timepoint was calculated relative to timepoint zero based on absolute peak areas.
Compounds with a SGF stability (after 4 h) above 70% are considered highly SGF stable. […] Table 3-4: SGF data

Data set [2] deals with T1, human IL-23R endogenously expressed on DB cells (human, UniProt Q5VWK5 24-629).
T1 sequence (looked up): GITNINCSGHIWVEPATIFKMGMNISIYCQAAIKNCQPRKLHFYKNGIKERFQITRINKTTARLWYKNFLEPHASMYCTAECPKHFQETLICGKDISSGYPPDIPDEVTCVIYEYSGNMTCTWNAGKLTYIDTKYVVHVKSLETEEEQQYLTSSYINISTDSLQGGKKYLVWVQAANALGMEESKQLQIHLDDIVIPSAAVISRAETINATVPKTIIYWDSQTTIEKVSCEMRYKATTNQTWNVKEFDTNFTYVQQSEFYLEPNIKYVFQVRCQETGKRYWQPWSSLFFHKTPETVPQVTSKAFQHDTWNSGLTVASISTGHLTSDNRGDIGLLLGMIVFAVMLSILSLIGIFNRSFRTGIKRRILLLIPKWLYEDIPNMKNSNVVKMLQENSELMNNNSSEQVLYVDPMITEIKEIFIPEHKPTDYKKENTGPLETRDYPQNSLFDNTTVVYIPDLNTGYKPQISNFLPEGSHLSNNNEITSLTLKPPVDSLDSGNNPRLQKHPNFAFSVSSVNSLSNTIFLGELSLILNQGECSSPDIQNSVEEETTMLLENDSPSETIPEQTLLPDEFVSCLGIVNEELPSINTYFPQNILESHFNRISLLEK
Nature of the data set: cell-based or functional assay.

For data set [3], the target named is T2, Nluc-IL23R fusion protein (human, UniProt Q5VWK5 22-629).
T2 construct: range 22-629; expressed with a secretion signal in HEK293 cells; used as crude membrane preparation; also called hIL-23R; human IL-23R; not shown: Nanoluc protein from the expression plasmid N1371 (Promega), N-terminal of IL-23R
T2 sequence (looked up): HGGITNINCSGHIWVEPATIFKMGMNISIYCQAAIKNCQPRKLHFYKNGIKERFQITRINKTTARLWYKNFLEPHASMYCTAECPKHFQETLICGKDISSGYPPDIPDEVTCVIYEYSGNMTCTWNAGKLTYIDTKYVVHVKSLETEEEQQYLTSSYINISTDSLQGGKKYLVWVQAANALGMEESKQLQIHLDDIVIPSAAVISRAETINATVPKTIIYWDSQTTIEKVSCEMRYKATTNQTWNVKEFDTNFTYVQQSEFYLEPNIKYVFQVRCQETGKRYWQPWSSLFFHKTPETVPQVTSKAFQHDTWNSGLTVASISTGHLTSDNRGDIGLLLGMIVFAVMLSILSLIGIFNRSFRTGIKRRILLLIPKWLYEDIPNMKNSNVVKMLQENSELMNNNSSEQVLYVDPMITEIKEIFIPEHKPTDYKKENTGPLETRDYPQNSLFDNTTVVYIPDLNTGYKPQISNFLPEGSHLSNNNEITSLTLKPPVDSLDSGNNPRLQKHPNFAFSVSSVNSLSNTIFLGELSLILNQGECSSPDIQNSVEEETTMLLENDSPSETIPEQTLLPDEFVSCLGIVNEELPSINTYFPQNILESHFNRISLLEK
The data set can be described thus: BRET competition vs TAMRA-labelled peptide, Nluc-IL23R membranes. (In general: In BRET a luciferase serves as donor, and the signal depends on an acceptor being close.)

*1 amine or outer side, *2 acyl side, *3 side chain or, on linkers, in order; H or OH if unused. Where a SMILES comes first, the peptide text is derived from it. Bridges are numbered along the chain shown (N, C = ends). Where no end group is shown, it is not given here. [ ]: non-standard residue; d: D form. 4‑Aminomethyl‑phenylacetyl = 4-aminomethyl-phenylacetyl unit, its amine closes the lactam, O=C(Cc1ccc(CN[*:1])cc1)[*:2]; 2Nal = N[C@@H](Cc1ccc2ccccc2c1)C(=O)O; AEF = NCCOc1ccc(C[C@H](N)C(=O)O)cc1; 3Pal = N[C@@H](Cc1cccnc1)C(=O)O; αMeL = CC(C)C[C@](C)(N)C(=O)O; CH2COCH2 = O=C(C[*:1])C[*:2]; 3Amb = NCc1cccc(C(=O)O)c1; NMeS = CN[C@@H](CO)C(=O)O; Dab = NCC[C@H](N)C(=O)O; βAla = NCCC(=O)O

For the molecule `CC(=O)N[C@@H](CC(=O)O)C(=O)N[C@H]1CCC(=O)NCCCC[C@@H](C(=O)N[C@@H](CCCNC(=N)N)C(N)=O)NC(=O)[C@H](CC(C)C)NC(=O)[C@H](Cc2ccc3ccccc3c2)NC(=O)[C@H](Cc2c[nH]c3ccccc23)NC(=O)[C@@H]2CSCC(=O)CSC[C@H](NC(=O)[C@H](CO)NC1=O)C(=O)N[C@@H](Cc1c[nH]c3ccccc13)C(=O)N[C@@H](CCC(N)=O)C(=O)N2` [Ref 17, [Ac]-DE(1c)SC(2a)WQC(2a)W[2-Nal]LK(1c)R-[NH2], reference compound], in data set [1], the “SGF (% remaining 1 h)” value is given as 0% and the “SGF (% remaining 4 h)” value is 0%.

Turning to `CC(C)C[C@@H]1NC(=O)[C@H](Cc2ccc3ccccc3c2)NC(=O)[C@H](Cc2c[nH]c3ccccc23)NC(=O)[C@@H]2CSCC(=O)CSC[C@H](NC(=O)[C@H](CO)NC(=O)c3cccc(c3)CNC(=O)CC[C@@H](C(=O)N[C@@H](CCCNC(=N)N)C(N)=O)NC1=O)C(=O)N[C@@H](Cc1c[nH]c3ccccc13)C(=O)N[C@@H](CCC(N)=O)C(=O)N2` [Ref 37, [(3-Aminomethyl)benzoyl](1c)*SC(2a)WQC(2a)W[2-Nal]LE(1c)R-[NH2], reference compound] ([3Amb]SCWQCW[2Nal]LER-NH2; linker 3-6 via CH2COCH2; lactam N-10), in data set [1], the “SGF (% remaining 1 h)” value is listed as 2% and the “SGF (% remaining 4 h)” value is listed as 1%.

B1: Ref 82 (peptide)
peptide: [4‑Aminomethyl‑phenylacetyl]SCWQC[AEF][2Nal][αMeL]E[Dab]-NH2
modifications: lactam N-10; bridge 3-6; not fully specified (bridges); printed as [4-Aminomethyl-phenylacetyl](1c)*SC(2a)WQC(2a)[Y(2-aminoethoxy)][2-Nal][2-Me-Leu]E(1c)[Dab]-[NH2]
Take B1: in data set [2], the “hIL-23 (pSTAT3) antagonist % inhibition” value was 97% and the “hIL-23 (pSTAT3) antagonist IC50” value was determined as 11 nM. Besides, the % displacement (hIL-23R binding) in data set [3] came out at 103%.

[4‑Aminomethyl‑phenylacetyl][NMeS]EWQ[Dab][AEF][2Nal][αMeL]E[Dab][3Pal]-NHMe (lactam (positions not given here); lactam 3-6; not fully specified (bridges)) [Compound 18] came in with a % displacement (hIL-23R binding) in data set [3] of 96%.

As for [3Pal][βAla]SCWQC[AEF][2Nal][αMeL]E[dR]-NH2 (lactam N-11; linker 4-7 via 1,3‑dithio‑propan‑2‑one) [Compound 2], the % displacement (hIL-23R binding) in data set [3] came to 103%.

On to [4‑Aminomethyl‑phenylacetyl]SEWQ[Dab][AEF][2Nal][αMeL]E[Dab]H[3Pal]-NH2 (lactam (positions not given here); lactam 3-6; not fully specified (bridges)) [Compound 12], for which, in data set [2], the “hIL-23 (pSTAT3) antagonist % inhibition” value came to 100% and the “hIL-23 (pSTAT3) antagonist IC50” value was 3.5 nM. In data set [3], this molecule yielded a % displacement (hIL-23R binding) of 104%.

B2: Ref 120 (peptide)
peptide: [4‑Aminomethyl‑phenylacetyl]SCWQC[AEF][2Nal][αMeL]E[Dab][3Pal]-NH2
modifications: lactam N-10; bridge 3-6; not fully specified (bridges); printed as [4-Aminomethyl-phenylacetyl](1c)*SC(2a)WQC(2a)[Y(2-aminoethoxy)][2-Nal][2-Me-Leu]E(1c)[Dab][3-(3-Pyridyl)-Ala]-[NH2]
Take B2: in data set [2], the “hIL-23 (pSTAT3) antagonist % inhibition” value was 101% and the “hIL-23 (pSTAT3) antagonist IC50” value was determined as 54 pM. In addition, the % displacement (hIL-23R binding) in data set [3] was found to be 94%.

B3: Compound 23 (peptide)
peptide: [4‑Aminomethyl‑phenylacetyl]SEWF[Dab][AEF][2Nal][αMeL]E[Dab][3Pal]-NHMe
modifications: lactam N-10, 3-6
SMILES: CNC(=O)[C@H](Cc1cccnc1)NC(=O)[C@H](CCN)NC(=O)[C@@H]1CCC(=O)NCc2ccc(cc2)CC(=O)N[C@@H](CO)C(=O)N[C@H]2CCC(=O)NCC[C@H](NC(=O)[C@H](Cc3ccccc3)NC(=O)[C@H](Cc3c[nH]c4ccccc34)NC2=O)C(=O)N[C@@H](Cc2ccc(OCCN)cc2)C(=O)N[C@@H](Cc2ccc3ccccc3c2)C(=O)N[C@@](C)(CC(C)C)C(=O)N1
For B3, in data set [2], the “hIL-23 (pSTAT3) antagonist % inhibition” value turned out to be 99% and the “hIL-23 (pSTAT3) antagonist IC50” value was 5.2 nM. In data set [3], this molecule gave a % displacement (hIL-23R binding) of 97% and an IC50 of 0.12 nM.

B4: Compound 22 (peptide)
peptide: [4‑Aminomethyl‑phenylacetyl]SEWA[Dab][AEF][2Nal][αMeL]E[Dab][3Pal]-NHMe
modifications: lactam N-10, 3-6
SMILES: CNC(=O)[C@H](Cc1cccnc1)NC(=O)[C@H](CCN)NC(=O)[C@@H]1CCC(=O)NCc2ccc(cc2)CC(=O)N[C@@H](CO)C(=O)N[C@H]2CCC(=O)NCC[C@H](NC(=O)[C@H](C)NC(=O)[C@H](Cc3c[nH]c4ccccc34)NC2=O)C(=O)N[C@@H](Cc2ccc(OCCN)cc2)C(=O)N[C@@H](Cc2ccc3ccccc3c2)C(=O)N[C@@](C)(CC(C)C)C(=O)N1
As for B4, in data set [2], the “hIL-23 (pSTAT3) antagonist % inhibition” value was 101% and the “hIL-23 (pSTAT3) antagonist IC50” value was found to be 3.4 nM. Also, in data set [3], the % displacement (hIL-23R binding) was determined as 96% and the IC50 stood at 0.035 nM.

B5: Ref 78 (peptide)
peptide: [3Amb]SCWQC[AEF][2Nal][αMeL]ER[3Pal]-NH2
modifications: lactam N-10; bridge 3-6; not fully specified (bridges); printed as [(3-Aminomethyl)benzoyl](1c)*SC(2a)WQC(2a)[Y(2-aminoethoxy)][2-Nal][2-Me-Leu]E(1c)R[3-(3-Pyridyl)-Ala]-[NH2]
Take B5: in data set [2], the “hIL-23 (pSTAT3) antagonist % inhibition” value was 100% and the “hIL-23 (pSTAT3) antagonist IC50” value stood at 0.13 nM. The molecule further showed a % displacement (hIL-23R binding) in data set [3] of 100%.

B6: Compound 21 (peptide)
peptide: [4‑Aminomethyl‑phenylacetyl]FEWQ[Dab][AEF][2Nal][αMeL]E[Dab][3Pal]-NHMe
modifications: lactam N-10, 3-6
SMILES: CNC(=O)[C@H](Cc1cccnc1)NC(=O)[C@H](CCN)NC(=O)[C@@H]1CCC(=O)NCc2ccc(cc2)CC(=O)N[C@@H](Cc2ccccc2)C(=O)N[C@H]2CCC(=O)NCC[C@H](NC(=O)[C@H](CCC(N)=O)NC(=O)[C@H](Cc3c[nH]c4ccccc34)NC2=O)C(=O)N[C@@H](Cc2ccc(OCCN)cc2)C(=O)N[C@@H](Cc2ccc3ccccc3c2)C(=O)N[C@@](C)(CC(C)C)C(=O)N1
Regarding B6, in data set [2], the “hIL-23 (pSTAT3) antagonist % inhibition” value was found to be 102% and the “hIL-23 (pSTAT3) antagonist IC50” value stood at 63 pM. Besides, in data set [3], the % displacement (hIL-23R binding) worked out at 95%.

B7: Ref 155 (peptide)
peptide: Ac-KTCWQC[AEF][2Nal][αMeL]E[Dab][3Pal]-NH2
modifications: lactam 1-10; bridge 3-6; not fully specified (bridges); printed as [Ac]-K(1c)TC(2a)WQC(2a)[Y(2-aminoethoxy)][2-Nal][2-Me-Leu]E(1c)[Dab][3-(3-Pyridyl)-Ala]-[NH2]
B7: in data set [2], the “hIL-23 (pSTAT3) antagonist % inhibition” value was 100% and the “hIL-23 (pSTAT3) antagonist IC50” value worked out at 31 pM. Besides, in data set [3], the % displacement (hIL-23R binding) was determined as 97%.

In general, IC50 refers to the concentration that gives 50% inhibition.

These data come from EP4471049A1 (Zealand Pharma A/S, priority 2023, dated 2024).
